Data as given in patent US20160222130A1 (Astellas, published 2016).

Tests used:
Assay in all cases: ELISA; Tie2-Fc coated at 1 ug/mL; signal at 100 ng/mL antibody vs convergence value on the parent
[1] = molecular target: T1, Human Tie2 (1-452)g3-Fc (human, UniProt Q02763 23-452)
T1 construct: range 1-452
Protocol: (§1) The next day, the immobilized solution was removed, and the plate was washed with a TBS-T solution, and incubated for 60 minutes by the addition of 50 μL of a Blocker™ Casein in TBS (Thermo Fisher Scientific Inc., 37532) to perform blocking. The resultant was washed with a TBS-T solution, and TIE-1-Igγ1-LALA, diluted with 0.05% Tween 20 (Nacalai Tesque Inc., 28353-85)—containing Blocker™ Casein in TBS from 0.03 ng/mL to 100 ng/mL through eight steps, was added thereto in the amount of 20 μL per well. The resultant was incubated at room temperature for 90 minutes and then washed with a TBS-T solution three times, and 20 μL of a biotin-labeled anti-human kappa light chain antibody, which had been diluted to 0.1 μg/mL with 0.05% Tween 20-containing Blocker™ Casein in TBS, was added thereto. The resultant was incubated at room temperature for 60 minutes and then washed with a TBS-T solution three times, and 20 μL of alkaline phosphatase-labeled streptavidin, which had been diluted to 0.1 μg/mL with 0.05% Tween 20-containing Blocker™ Casein in TBS, was added thereto. The resultant was incubated at room temperature for 60 minutes and then washed with a TBS-T solution three times, and 50 μL of Chemiluminescent Ultra Sensitive AP Microwell and/or Membrane Substrate (450 nm), which had been 5-fold diluted with 1 mM MgCl₂-containing 20 mM TBS (pH 9.8) as a substrate, was added thereto. The resultant was incubated at room temperature under light-shielding for 40 minutes, and then luminescent intensity thereof was measured with an EnVision™ multi-label counter. The EC₅₀ value of TIE-1-Igγ1-LALA with respect to the human Tie2 (1-452)-Fc chimeric protein and 23 mutant proteins thereof were calculated. The relative value of luminescent intensity of 100 ng/mL TIE-1-Igγ1-LALA as maximum concentration point with respect to human Tie2 (1-452)-Fc chimeric protein and 23 mutant proteins thereof when the convergence value of the sigmoid curve of TIE-1-Igγ1-LALA binding to the human Tie2 (1-452)-Fc chimeric protein which was taken as 100% was calculated (Table 8 and Table 9). Further, the EC₅₀ value and the convergence value were calculated by Sigmoid-Emax model non-linear regression analysis.

[2] = molecular target: T2, Human Tie2 (1-452)r1-Fc (human, UniProt Q02763 23-452)
T2 construct: range 1-452
T2 sequence (Q02763 other isoform, or with tags, fused parts or gaps limits assumed, form in doubt): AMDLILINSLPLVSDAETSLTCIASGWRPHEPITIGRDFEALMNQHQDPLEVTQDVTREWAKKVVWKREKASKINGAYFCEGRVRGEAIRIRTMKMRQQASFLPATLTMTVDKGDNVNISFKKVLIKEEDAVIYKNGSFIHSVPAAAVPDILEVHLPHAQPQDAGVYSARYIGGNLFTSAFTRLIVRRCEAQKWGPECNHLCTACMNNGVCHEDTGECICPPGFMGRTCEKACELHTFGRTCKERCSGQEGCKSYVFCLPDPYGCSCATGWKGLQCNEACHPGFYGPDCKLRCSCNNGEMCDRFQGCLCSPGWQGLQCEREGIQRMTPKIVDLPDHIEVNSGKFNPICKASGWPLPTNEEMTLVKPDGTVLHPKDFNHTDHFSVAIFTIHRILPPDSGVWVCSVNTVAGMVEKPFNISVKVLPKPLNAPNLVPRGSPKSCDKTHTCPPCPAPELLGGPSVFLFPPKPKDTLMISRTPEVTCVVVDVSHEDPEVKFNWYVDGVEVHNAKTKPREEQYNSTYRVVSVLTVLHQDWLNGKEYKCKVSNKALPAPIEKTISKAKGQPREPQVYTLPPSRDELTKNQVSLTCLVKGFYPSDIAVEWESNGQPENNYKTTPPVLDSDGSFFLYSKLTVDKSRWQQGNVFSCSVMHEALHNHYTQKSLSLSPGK
Protocol: as §1

[3] = molecular target: T3, Human Tie2 (1-452)g4-Fc (human, UniProt Q02763 23-452)
T3 construct: range 1-452
Protocol: as §1

[4] = molecular target: T4, Human Tie2 (1-452)g1-Fc (human, UniProt Q02763 23-452)
T4 construct: range 1-452
Protocol: as §1

[5] = molecular target: T5, Human Tie2 (1-452)g2-Fc (human, UniProt Q02763 23-452)
T5 construct: range 1-452
T5 sequence (Q02763 other isoform, or with tags, fused parts or gaps limits assumed, form in doubt): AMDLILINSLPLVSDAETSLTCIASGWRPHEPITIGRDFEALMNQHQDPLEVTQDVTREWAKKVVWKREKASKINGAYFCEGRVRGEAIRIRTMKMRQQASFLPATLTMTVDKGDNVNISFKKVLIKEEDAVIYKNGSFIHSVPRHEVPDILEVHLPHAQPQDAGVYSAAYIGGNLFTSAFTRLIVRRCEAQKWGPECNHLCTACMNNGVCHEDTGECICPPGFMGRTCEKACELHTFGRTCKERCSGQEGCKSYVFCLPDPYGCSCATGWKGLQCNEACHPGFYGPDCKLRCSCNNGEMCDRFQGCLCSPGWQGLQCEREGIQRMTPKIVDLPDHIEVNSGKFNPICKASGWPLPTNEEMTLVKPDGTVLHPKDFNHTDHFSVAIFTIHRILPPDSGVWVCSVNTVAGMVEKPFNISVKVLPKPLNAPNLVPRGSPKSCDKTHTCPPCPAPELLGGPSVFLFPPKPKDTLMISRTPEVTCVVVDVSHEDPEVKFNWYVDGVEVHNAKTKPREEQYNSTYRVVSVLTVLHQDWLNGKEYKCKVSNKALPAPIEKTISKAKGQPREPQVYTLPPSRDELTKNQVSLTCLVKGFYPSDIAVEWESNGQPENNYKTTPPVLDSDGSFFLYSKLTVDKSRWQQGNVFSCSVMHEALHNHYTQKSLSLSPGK
Protocol: as §1

[6] = molecular target: T6, Human Tie2 (1-452)r4-Fc (human, UniProt Q02763 23-452)
T6 construct: range 1-452
Protocol: as §1

[7] = molecular target: T7, Human Tie2 (1-452)y1-Fc (human, UniProt Q02763 23-452)
T7 construct: range 1-452
Protocol: as §1

[8] = molecular target: T8, Human Tie2 (1-452)c1-Fc (human, UniProt Q02763 23-452)
T8 construct: range 1-452
Protocol: as §1

[9] = molecular target: T9, Human Tie2 (1-452)r6-Fc (human, UniProt Q02763 23-452)
T9 construct: range 1-452
T9 sequence (Q02763 other isoform, or with tags, fused parts or gaps limits assumed, form in doubt): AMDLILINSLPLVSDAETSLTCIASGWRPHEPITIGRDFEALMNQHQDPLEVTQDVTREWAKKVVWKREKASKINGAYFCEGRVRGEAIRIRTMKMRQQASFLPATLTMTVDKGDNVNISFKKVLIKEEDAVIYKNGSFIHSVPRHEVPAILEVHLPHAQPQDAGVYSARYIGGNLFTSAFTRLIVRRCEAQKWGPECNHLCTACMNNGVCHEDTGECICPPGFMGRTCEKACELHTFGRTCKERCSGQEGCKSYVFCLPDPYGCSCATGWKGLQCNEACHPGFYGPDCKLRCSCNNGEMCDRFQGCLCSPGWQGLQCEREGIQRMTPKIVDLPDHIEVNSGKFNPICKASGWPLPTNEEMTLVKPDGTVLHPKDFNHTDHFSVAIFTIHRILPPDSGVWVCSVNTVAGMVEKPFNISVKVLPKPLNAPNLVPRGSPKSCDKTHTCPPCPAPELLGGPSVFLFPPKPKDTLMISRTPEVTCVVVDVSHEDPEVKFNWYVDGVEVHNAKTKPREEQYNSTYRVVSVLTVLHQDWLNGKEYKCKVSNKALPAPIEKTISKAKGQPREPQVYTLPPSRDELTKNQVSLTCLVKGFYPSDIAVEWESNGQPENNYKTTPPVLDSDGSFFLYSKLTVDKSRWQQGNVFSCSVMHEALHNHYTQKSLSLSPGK
Protocol: as §1

[10] = molecular target: T10, human Tie2 (1-452)-Fc chimeric protein (human, UniProt Q02763 23-452)
T10 construct: range 1-452; The stated range 1-452 begins at residue 1 of the precursor
Protocol: as §1

[11] = molecular target: T11, Human Tie2 (1-452)r7-Fc (human, UniProt Q02763 23-452)
T11 construct: range 1-452
Protocol: as §1

[12] = molecular target: T12, Human Tie2 (1-452)g5-Fc (human, UniProt Q02763 23-452)
T12 construct: range 1-452
T12 sequence (Q02763 other isoform, or with tags, fused parts or gaps limits assumed, form in doubt): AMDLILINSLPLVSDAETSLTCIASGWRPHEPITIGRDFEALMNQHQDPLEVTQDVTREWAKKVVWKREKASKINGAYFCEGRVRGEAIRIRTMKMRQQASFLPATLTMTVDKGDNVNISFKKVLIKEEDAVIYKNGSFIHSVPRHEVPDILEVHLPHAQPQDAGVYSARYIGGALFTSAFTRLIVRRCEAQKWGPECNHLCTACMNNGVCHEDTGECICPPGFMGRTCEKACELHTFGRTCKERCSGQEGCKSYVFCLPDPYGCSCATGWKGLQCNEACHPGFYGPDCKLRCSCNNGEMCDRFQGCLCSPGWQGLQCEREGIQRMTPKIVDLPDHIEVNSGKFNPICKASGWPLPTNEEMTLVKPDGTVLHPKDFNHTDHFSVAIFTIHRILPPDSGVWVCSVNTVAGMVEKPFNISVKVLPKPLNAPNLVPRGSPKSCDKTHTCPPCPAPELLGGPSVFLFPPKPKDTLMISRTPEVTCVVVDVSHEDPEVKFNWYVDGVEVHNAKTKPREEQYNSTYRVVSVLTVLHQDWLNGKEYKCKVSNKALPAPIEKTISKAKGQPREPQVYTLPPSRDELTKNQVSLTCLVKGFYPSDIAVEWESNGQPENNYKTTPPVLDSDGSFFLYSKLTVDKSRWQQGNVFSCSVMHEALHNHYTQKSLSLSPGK
Protocol: as §1

[13] = molecular target: T13, Human Tie2 (1-452)m1-Fc (human, UniProt Q02763 23-452)
T13 construct: range 1-452
Protocol: as §1

[14] = molecular target: T14, Human Tie2 (1-452)g6-Fc (human, UniProt Q02763 23-452)
T14 construct: range 1-452
Protocol: as §1

[15] = molecular target: T15, Human Tie2 (1-452)r2-Fc (human, UniProt Q02763 23-452)
T15 construct: range 1-452
T15 sequence (Q02763 other isoform, or with tags, fused parts or gaps limits assumed, form in doubt): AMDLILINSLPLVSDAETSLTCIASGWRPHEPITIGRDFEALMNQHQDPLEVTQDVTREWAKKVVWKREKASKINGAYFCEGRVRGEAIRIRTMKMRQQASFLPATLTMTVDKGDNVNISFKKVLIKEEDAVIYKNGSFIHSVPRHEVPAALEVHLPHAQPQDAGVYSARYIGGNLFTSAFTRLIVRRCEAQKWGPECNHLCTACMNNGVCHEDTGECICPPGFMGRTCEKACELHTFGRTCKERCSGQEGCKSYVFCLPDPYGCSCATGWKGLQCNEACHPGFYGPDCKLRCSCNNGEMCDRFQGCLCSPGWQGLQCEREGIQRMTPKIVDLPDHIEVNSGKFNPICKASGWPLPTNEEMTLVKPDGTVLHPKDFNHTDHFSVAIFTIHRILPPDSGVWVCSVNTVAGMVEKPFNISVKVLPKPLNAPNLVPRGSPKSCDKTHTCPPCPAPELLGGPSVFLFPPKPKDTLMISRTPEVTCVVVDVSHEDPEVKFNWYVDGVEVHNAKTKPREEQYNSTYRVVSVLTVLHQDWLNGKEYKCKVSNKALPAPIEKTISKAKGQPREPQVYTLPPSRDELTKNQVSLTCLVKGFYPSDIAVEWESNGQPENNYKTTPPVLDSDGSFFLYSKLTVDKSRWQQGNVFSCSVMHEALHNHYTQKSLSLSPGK
Protocol: as §1

[16] = molecular target: T16, Human Tie2 (1-452)r5-Fc (human, UniProt Q02763 23-452)
T16 construct: range 1-452
Protocol: as §1

T1 sequence (Q02763 other isoform, or with tags, fused parts or gaps limits assumed, form in doubt): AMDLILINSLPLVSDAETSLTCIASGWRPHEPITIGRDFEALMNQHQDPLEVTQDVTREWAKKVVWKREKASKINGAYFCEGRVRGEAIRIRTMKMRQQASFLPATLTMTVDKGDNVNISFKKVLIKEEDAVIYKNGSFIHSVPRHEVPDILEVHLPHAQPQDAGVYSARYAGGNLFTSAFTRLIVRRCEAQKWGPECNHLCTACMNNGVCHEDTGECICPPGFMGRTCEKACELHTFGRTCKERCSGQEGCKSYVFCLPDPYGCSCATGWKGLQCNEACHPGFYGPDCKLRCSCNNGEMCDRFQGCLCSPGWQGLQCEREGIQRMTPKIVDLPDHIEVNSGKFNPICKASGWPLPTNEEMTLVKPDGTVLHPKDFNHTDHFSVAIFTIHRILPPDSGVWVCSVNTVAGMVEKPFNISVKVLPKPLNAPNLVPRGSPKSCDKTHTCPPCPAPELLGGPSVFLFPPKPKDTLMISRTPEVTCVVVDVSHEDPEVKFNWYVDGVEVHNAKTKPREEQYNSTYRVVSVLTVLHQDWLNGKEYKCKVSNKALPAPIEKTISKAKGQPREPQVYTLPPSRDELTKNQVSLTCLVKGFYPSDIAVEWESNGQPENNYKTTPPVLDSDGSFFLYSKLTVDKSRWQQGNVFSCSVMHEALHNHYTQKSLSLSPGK

Relative value (%) of luminescent intensity [1]: 96%
Relative value (%) of luminescent intensity [2]: 97%
Relative value (%) of luminescent intensity [3]: 53%
Relative value (%) of luminescent intensity [4]: 3%
Relative value (%) of luminescent intensity [5]: 72%
Relative value (%) of luminescent intensity [6]: 101%
Relative value (%) of luminescent intensity [7]: 109%
Relative value (%) of luminescent intensity [8]: 104%
Relative value (%) of luminescent intensity [9]: 100%
Relative value (%) of luminescent intensity [10]: 97%
Relative value (%) of luminescent intensity [11]: 100%
Relative value (%) of luminescent intensity [12]: 91%
Relative value (%) of luminescent intensity [13]: 104%
Relative value (%) of luminescent intensity [14]: 105%
Relative value (%) of luminescent intensity [15]: 96%
Relative value (%) of luminescent intensity [16]: 102%
B1: TIE-1-Igγ1-LALA (antibody, human IgG1, kappa, L234A L235A)
heavy: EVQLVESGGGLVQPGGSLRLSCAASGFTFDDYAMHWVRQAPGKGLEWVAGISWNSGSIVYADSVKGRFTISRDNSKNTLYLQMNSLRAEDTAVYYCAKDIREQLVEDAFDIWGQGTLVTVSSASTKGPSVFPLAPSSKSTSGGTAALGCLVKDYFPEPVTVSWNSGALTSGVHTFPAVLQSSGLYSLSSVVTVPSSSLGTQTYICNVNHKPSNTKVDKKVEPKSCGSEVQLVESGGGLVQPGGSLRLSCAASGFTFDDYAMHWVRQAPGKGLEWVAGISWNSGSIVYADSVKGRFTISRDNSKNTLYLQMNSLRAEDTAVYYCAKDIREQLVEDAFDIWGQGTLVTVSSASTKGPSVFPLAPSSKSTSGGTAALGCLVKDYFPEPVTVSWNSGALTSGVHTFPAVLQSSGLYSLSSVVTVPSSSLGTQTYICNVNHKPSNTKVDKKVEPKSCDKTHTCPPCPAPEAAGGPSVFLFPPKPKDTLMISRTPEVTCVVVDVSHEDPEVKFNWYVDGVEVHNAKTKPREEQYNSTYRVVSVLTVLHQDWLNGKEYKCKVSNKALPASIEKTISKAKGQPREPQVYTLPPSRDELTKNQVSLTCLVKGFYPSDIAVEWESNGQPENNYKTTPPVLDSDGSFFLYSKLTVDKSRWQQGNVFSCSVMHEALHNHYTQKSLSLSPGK
light: DIQMTQSPSSLSASVGDRVTITCRSSQSLLHSHRYNYLDWYQQKPGKAPKLLIYLGSNRASGVPSRFSGSGSGTDFTLTISSVQPEDFATYYCMQTLQTPLTFGQGTKVEIKRTVAAPSVFIFPPSDEQLKSGTASVVCLLNNFYPREAKVQWKVDNALQSGNSQESVTEQDSKDSTYSLSSTLTLSKADYEKHKVYACEVTHQGLSSPVTKSFNRGEC
notes: Tandem tetravalent format: two heavy chains (VH-CH1-linker-VH-CH1-CH2-CH3) and four light chains; also called tetravalent anti-human Tie2 antibody with L234A, L235A and P331S
